Reference: patent publication US8927500
Bridges are numbered along the chain shown (N, C = ends). [ ]: non-standard residue; d: D form. pY = N[C@@H](Cc1ccc(OP(=O)(O)O)cc1)C(=O)O; R8 = C=CCCCCCC[C@@](C)(N)C(=O)O; hLeu = CC(C)CC[C@H](N)C(=O)O; S5 = C=CCCC[C@](C)(N)C(=O)O; Cou6 = not defined here; Cou8 = not defined here; βAla = NCCC(=O)O

Key:
[1] = biological target: T1, MDMX (In-house, 40 kD), O15151; experiment: competitive FP vs FAM-labelled linear peptide; grade + = greater than 1000 nM; settings: remark: other sources report otherwise
T1 chain: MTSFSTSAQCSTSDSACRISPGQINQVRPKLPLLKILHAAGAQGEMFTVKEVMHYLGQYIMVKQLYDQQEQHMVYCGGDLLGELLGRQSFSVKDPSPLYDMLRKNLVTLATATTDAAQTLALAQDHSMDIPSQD

[2] = biological target: MDM2 (In-house, 41 kD), Q00987; experiment: as above; settings: remark: other sources report otherwise
[3] = biological target: T2, MDMX (In-house, 40 kD) (UniProt O15151); experiment: competitive fluorescence polarization, MDMX with FAM-labeled linear peptide; graded scale of paragraph 458
T2 sequence (looked up): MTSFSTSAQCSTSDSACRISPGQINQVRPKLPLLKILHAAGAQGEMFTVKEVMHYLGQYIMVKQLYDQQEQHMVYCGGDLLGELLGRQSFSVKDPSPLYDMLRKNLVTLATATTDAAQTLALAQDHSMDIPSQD

[4] = biological target: MDM2 (In-house, 41 kD) (UniProt Q00987); experiment: competitive fluorescence polarization, MDM2 with FAM-labeled linear peptide; graded scale of paragraph 458
Sequence of MDM2 (In-house, 41 kD) (Q00987 1-138 limits assumed): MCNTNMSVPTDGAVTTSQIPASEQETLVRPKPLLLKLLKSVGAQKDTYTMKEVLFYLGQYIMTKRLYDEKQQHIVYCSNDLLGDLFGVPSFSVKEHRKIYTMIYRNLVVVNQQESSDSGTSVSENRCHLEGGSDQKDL

Sequence of MDM2 (In-house, 41 kD), Q00987 (Q00987 1-138 limits assumed): as above

Row | Binder | IC50 [1] | Ki [1] | Ki [2] | Ki [3] | Ki [4]
1 | Cou6-[βAla]LTF[R8]EYWAQ[hLeu][S5]SAA-NH2 (staple 5-12; reading uncertain) [SP446] | > 1000 nM | > 1000 nM | – | – | –
2 | Cou8-[βAla]LTF[R8]EYWAQ[hLeu][S5]SAA-NH2 (staple 5-12; reading uncertain) [SP447] | > 1000 nM | > 1000 nM | – | – | –
3 | Ac-LTA[R8]EYWAQL[S5]AAAAA[dA]-NH2 (staple 4-11) [SP560] | – | > 1000 nM | > 1000 nM | – | –
4 | Ac-LTF[R8]E[pY]WAQL[S5]AAAAA[dA]-NH2 (staple 4-11) [peptidomimetic macrocycle SP615, Ac-LTF$r8EpYWAQL$AAAAAa-NH2] | – | – | – | < 10 nM | < 10 nM
